In CN117126283A (SHENZHEN NEW IND BIOMEDICAL ENGINEERING CO LTD, dated 2023):
One block for each binder: values may come before it.

Assays:
[1] = biological target: T1, 纤溶酶-α2纤溶酶抑制剂复合物(PIC) (UniProt P00747 97-810; P08697 40-491, limits assumed); assay: SPR (BIAcore 3000), antibody captured by goat anti-mouse IgG Fc on CM5, PIC as analyte
T1 construct: also called PIC抗原; PIC复合物

[2] = biological target: T2, 纤溶酶原(Plg) (UniProt P00747 20-810); assay: summing-up of the examples (ELISA specificity, Example 4; table 2 not shown)
T2 construct: Free precursor, used as coating antigen in ELISA; also called Plasminogen; 游离态的Plg
T2 sequence (P00747 20-810 limits assumed): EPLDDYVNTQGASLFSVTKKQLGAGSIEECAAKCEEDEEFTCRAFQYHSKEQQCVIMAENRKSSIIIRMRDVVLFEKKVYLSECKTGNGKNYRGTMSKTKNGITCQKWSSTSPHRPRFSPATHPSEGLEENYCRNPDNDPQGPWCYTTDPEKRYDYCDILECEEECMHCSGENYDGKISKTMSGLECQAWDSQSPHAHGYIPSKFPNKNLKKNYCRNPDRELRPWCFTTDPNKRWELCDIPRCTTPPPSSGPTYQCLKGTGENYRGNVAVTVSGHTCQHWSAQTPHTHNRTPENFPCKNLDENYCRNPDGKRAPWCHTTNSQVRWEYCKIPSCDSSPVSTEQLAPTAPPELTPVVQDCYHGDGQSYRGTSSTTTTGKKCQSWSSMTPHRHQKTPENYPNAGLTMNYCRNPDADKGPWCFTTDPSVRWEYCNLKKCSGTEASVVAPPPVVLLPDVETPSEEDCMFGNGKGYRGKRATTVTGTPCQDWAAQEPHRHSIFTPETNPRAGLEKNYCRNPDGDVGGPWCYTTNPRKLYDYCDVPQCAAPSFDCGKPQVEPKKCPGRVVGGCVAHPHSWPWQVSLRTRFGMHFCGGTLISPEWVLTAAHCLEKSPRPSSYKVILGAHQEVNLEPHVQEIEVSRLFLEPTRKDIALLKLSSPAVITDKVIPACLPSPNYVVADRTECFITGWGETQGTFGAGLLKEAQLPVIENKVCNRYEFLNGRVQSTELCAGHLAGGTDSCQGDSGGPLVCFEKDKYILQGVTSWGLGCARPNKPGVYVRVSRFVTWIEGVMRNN

[3] = biological target: T3, α2-纤溶酶抑制剂(α2-AP) (UniProt P08697 40-491, limits assumed); assay: as above
T3 construct: also called α2-antiplasmin; 游离态的α2-AP
T3 sequence (looked up): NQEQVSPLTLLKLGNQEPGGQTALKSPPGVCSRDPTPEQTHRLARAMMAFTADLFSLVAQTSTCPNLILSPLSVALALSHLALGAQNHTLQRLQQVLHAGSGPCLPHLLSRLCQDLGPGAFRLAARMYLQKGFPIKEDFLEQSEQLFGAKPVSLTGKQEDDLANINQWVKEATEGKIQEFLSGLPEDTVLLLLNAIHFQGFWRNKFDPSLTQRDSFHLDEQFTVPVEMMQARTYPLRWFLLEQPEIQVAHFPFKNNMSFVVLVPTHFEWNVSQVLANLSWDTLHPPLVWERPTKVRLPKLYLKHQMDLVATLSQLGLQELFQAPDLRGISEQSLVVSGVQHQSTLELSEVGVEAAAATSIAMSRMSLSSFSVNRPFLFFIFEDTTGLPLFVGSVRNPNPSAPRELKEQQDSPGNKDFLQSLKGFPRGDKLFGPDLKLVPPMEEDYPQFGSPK

T1 sequence (P00747 97-810 limits assumed, one chain of several): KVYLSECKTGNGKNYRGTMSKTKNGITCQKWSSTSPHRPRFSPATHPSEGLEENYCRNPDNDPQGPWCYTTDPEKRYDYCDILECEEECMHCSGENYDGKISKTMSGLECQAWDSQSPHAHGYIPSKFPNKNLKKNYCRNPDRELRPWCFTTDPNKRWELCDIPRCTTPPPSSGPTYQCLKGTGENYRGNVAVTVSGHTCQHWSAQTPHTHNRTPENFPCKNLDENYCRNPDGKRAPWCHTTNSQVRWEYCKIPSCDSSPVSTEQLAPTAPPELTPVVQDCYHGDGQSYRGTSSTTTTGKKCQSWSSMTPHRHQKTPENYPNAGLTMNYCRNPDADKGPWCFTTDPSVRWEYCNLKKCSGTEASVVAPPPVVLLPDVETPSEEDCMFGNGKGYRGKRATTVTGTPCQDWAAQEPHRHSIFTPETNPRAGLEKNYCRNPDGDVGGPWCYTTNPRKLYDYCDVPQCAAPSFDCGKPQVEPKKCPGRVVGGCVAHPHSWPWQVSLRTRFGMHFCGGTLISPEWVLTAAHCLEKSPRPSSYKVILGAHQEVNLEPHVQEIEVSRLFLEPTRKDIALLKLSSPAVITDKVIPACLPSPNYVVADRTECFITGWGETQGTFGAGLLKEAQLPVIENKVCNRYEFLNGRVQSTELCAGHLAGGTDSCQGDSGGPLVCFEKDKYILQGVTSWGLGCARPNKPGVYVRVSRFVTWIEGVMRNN

- Kd [1]: 1.21 nM
- koff [1]: 9.54e-05 s⁻¹
- kon [1]: 78900 M⁻¹ s⁻¹
- binding result [2]: no binding
- binding result [3]: no binding
B1: PIC抗体(WT2) (antibody, mouse IgG1, kappa, V domains shown)
VH: QVQLQQPGAELVRPGASVKLSCKASGYTFTSSWMHWVKQRPEQGLEWIGYIDPYDSETHYNQKFKDKAILTVDKSSSTAYMQLSSLTSEDSAVYYCARGYDRSFDYWGQGTTLTVSS
VL: DIKMTQSPSSMFASLGERVTITCKASQDIKSFLNWYQQKPWRSPKTLIYYATSLADGVPSRFSGSGSGQDFSLTISSLESDDAATYYCLQHGESPFTFGGGTKLEIKR
notes: That VL2/VH2 belong to 5B3F6 (WT2) follows from the order of naming, not from an explicit sentence; also called 5B3F6; PIC单抗(WT2)

- Kd [1]: 1.29 nM
- koff [1]: 8.54e-05 s⁻¹
- kon [1]: 65900 M⁻¹ s⁻¹
- binding result [2]: no binding
- binding result [3]: no binding
B2: PIC抗体(WT1) (antibody, mouse IgG1, kappa, V domains shown)
VH: QVQLQQSGPELVKPGASVKLSCKASGNAFSSSWMNWVKQRPGQGLEWIGRIYPGDGDTNYNGKFKGKATLTVDKSSSTVYMQLSSLTSVDSAVYFCGRGNPTTAYAMDYWGQGTSVTVSS
VL: DIVLTQSPASLAVSLGQRATLSCRASESVDSFGYSFMHWYQQNPGQPPKLLIYRASNLESGIPARFSGSGSRTDFTLTINPVEADDVATYFCQQTNEDPYTFGGGAKLEIKR
notes: that VL1/VH1 belong to 1C2B4 (WT1) follows from the order of naming, not from an explicit sentence; also called 1C2B4; PIC单抗(WT1)
